Holding throughout (test): ITC
For orientation: In ITC the heat of successive injections is recorded.

Test [1] deals with HSL3 ectodomain pre-incubated with CTNIP4^C58A.C68A(46–70)_(linear) (Arabidopsis, C58A (stands in the printed letters) | C68A (stands in the printed letters)).
Test [2] deals with HSL3–CTNIP4 complex (HSL3 ectodomain pre-incubated with CTNIP4(46–70)_(Cys–Cys)) (Arabidopsis, disulfide bond linking Cys58 and Cys68).
Test [3] addresses HSL3 ectodomain pre-incubated with CTNIP4^C58A(46–63) (Arabidopsis, C58A (stands in the printed letters)).
In test [4] the target is HSL3 ectodomain pre-incubated with CTNIP4^N60F(46–70)_(Cys–Cys) (Arabidopsis, N60F (stands in the printed letters), disulfide bond linking Cys58 and Cys68).
The target of test [5] is HSL3 ectodomain pre-incubated with CTNIP4^N60A(46–70)_(Cys–Cys) (Arabidopsis, N60A (stands in the printed letters), disulfide bond linking Cys58 and Cys68).

B1: SERK1 ectodomain (residues 24–213) (domain or fragment)
chain: ASANLEGDALHTLRVTLVDPNNVLQSWDPTLVNPCTWFHVTCNNENSVIRVDLGNAELSGHLVPELGVLKNLQYLELYSNNITGPIPSNLGNLTNLVSLDLYLNSFSGPIPESLGKLSKLRFLRLNNNSLTGSIPMSLTNITTLQVLDLSNNRLSGSVPDNGSFSLFTPISFANNLDLCGPVTSHPCPGS
For orientation: Kd means the constant that tells how readily two partners part at equilibrium. A higher Kd goes with a looser complex. As to B1, the results for the Kd in test [1], in test [2] and in test [3] were 2.54 µM, 0.458 µM and 8.21 µM, respectively.

B2: SERK3 (protein)
chain: NAEGDALSALKNSLADPNKVLQSWDATLVTPCTWFHVTCNSDNSVTRVDLGNANLSGQLVMQLGQLPNLQYLELYSNNITGTIPEQLGNLTELVSLDLYLNNLSGPIPSTLGRLKKLRFLRLNNNSLSGEIPRSLTAVLTLQVLDLSNNPLTGDIPVNGSFSLFTPISFANTKLTPLPASPPPPISPTPPSPAGS
On to B2, for which the Kd turned out to be 0.269 µM in test [2], 15.1 µM in test [4] and 2.05 µM in test [5].

The record behind these values is paper PMC13585564 (2026).
